Paper PMC12205362

Tested on: MutS (Cy3-labeled) (Escherichia coli)
Experiment: smFRET (TIRF)
Settings: GT mismatch, amino-dT, smTIRF FRET on surface-immobilized plasmids, imaging buffer and temperature not in material, dCas9 RNP assembled in 30 mM HEPES, 150 mM KCl, pH 7.5, MutS with …; for binding signal (fold lower k-1 vs RC): ATP

## pUC19HL_MutS GT mismatch, negatively supercoiled (-)SC
k1 ~1.3x higher than RC, negatively supercoiled by gyrase, average sigma -0.07
  binding signal (fold lower k-1 vs RC): 1.3
Negatively supercoiled by gyrase, average sigma -0.07
  binding signal: 0.075 s-1 (koff)

## pUC19HL_MutS GT mismatch, relaxed circular (RC)
Covalently closed relaxed circle
  binding signal: 0.204 s-1 (koff)

## pUC19HL_MutS GT mismatch, positively supercoiled (+)SC
k1 similar to RC, positively supercoiled by 9N reverse gyrase, average sigma +0.03
  binding signal (fold lower k-1 vs RC): 1.3
Positively supercoiled by 9N reverse gyrase, average sigma +0.03
  binding signal: 0.107 s-1 (koff)
